Results as given in PMC2932728, “The Canine Papillomavirus and Gamma HPV E7 Proteins Use an Alternative Domain to Bind and Destabilize the Retinoblastoma Protein” (PLoS Pathogens, 2010).

B1: human retinoblastoma tumor suppressor protein pRb (natural protein, human (endogenous in Jurkat), UniProt P06400 1-928, looked up)
chain: MPPKTPRKTAATAAAAAAEPPAPPPPPPPEEDPEQDSGPEDLPLVRLEFEETEEPDFTALCQKLKIPDHVRERAWLTWEKVSSVDGVLGGYIQKKKELWGICIFIAAVDLDEMSFTFTELQKNIEISVHKFFNLLKEIDTSTKVDNAMSRLLKKYDVLFALFSKLERTCELIYLTQPSSSISTEINSALVLKVSWITFLLAKGEVLQMEDDLVISFQLMLCVLDYFIKLSPPMLLKEPYKTAVIPINGSPRTPRRGQNRSARIAKQLENDTRIIEVLCKEHECNIDEVKNVYFKNFIPFMNSLGLVTSNGLPEVENLSKRYEEIYLKNKDLDARLFLDHDKTLQTDSIDSFETQRTPRKSNLDEEVNVIPPHTPVRTVMNTIQQLMMILNSASDQPSENLISYFNNCTVNPKESILKRVKDIGYIFKEKFAKAVGQGCVEIGSQRYKLGVRLYYRVMESMLKSEEERLSIQNFSKLLNDNIFHMSLLACALEVVMATYSRSTSQNLDSGTDLSFPWILNVLNLKAFDFYKVIESFIKAEGNLTREMIKHLERCEHRIMESLAWLSDSPLFDLIKQSKDREGPTDHLESACPLNLPLQNNHTAADMYLSPVRSPKKKGSTTRVNSTANAETQATSAFQTQKPLKSTSLSLFYKKVYRLAYLRLNTLCERLLSEHPELEHIIWTLFQHTLQNEYELMRDRHLDQIMMCSMYGICKVKNIDLKFKIIVTAYKDLPHAVQETFKRVLIKEEEYDSIIVFYNSVFMQRLKTNILQYASTRPPTLSPIPHIPRSPYKFPSSPLRIPGGNIYISPLKSPYKISEGLPTPTKMTPRSRILVSIGESFGTSEKFQKINQMVCNSDRVLKRSAEGSNPPKPLKKLRFDIEGSDEADGSKHLPGESKFQQKLAEMTSTRTRMQKQKMNDSMDTSNKEEK
notes: retinoblastoma protein pRb, human, endogenous in Jurkat cell nuclear extract; also called human pRb; source: endogenous, Jurkat cell nuclear extract

Experiments:
pRb = assay: GST pull-down, Western blot with anti-pRb antibody, densitometry; conditions: binding normalized to GSTE7 protein; wild type CPV-2 E7 GST fusion set to 100%; parent: 100
GST HPV16 E7CR1CR2 = target: T1, GST HPV16 E7CR1CR2 (human papillomavirus type 16 (HPV16), UniProt P03129 1-38); assay: pull-down; 5 µg GST fusion protein with 50 µg Jurkat cell nuclear extract, 1 h at 4°C in 20 mM Hepes/150 mM KCl/4 mM MgCl2/1 mM EDTA/0.02% Nonidet P-40/10% glycerol; glutathione-Sepharose beads; Western blot for pRb and GST, densitometry normalised to GSTE7, wild type CPV-2 E7 set to 100%; conditions: one partner purified
T1 construct: E7 protein of human papillomavirus type 16, CR1 and CR2 domains; also called the combined CR domains; source: E. coli BL21pLysS, purified (glutathione-Sepharose)
T1 chain: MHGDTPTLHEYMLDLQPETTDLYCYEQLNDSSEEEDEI

Row | Molecule | percent of parent (pRb) [%] | fold pRb bound against the HPV16 E7 carboxyl-terminus domain (GST HPV16 E7CR1CR2) [fold]
1 | GST CPV-2 E7 wild type fusion protein S26C | 147 | –
2 | GST CPV-2 E7 wild type fusion protein S26G | 99 | –
3 | B1 | – | 6
